According to PMC8355326:

What was measured:
Assay in all cases: cryo-EM structure
[1] = target: BG505 SOSIP MD39 (HIV (BG505 genotype, clade A))
[2] = target: BG505 SOSIP.v5.2 N241/N289 (HIV (BG505 genotype, clade A))
[3] = target: BG505 SOSIP.v5.2(7S) N241/N289 (HIV (BG505 genotype, clade A))

BG505 SOSIP MD39 (domain or fragment)
stoichiometry N [1]: 3

BG505 SOSIP.v5.2 N241/N289 (domain or fragment)
stoichiometry N [2]: 3

BG505 SOSIP.v5.2(7S) N241/N289 (domain or fragment)
stoichiometry N [3]: 3
